Experimental data as given in the supplement of paper PMC10567573.

B1: TFE3 (parent)
chain: FPSDHLGDLGDPFHLGLEDILMEE
B2: EIF5 (parent)
chain: KQTIGNSCKACGYRGMLDTHHKLC

Variants of: B1
Test: protein stability index of a GFP-peptide fusion (GPS, HEK-293T) (PSI 1-6); higher = more stable
Settings: c terminus: a fixed tail appended
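Further: lentivirally expressed fusions sorted by FACS into six bins by GFP to DsRed ratio, PSI derived from sequencing read proportions per bin multiplied by bin number.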

Protein stability index, by site and new letter:
H5: W 1.35 | N 3.87 | C 3.73 | Q 3.85 | V 3.87 | D 4.42 | T 3.88 | F 3.28 | K 2.83 | R 3.52 | A 4.06 | P 3.68 | S 3.81 | L 3.3 | G 3.36 | I 3.08 | E 4.15 | Y 3.18 | M 3.33
G7: R 3.36 | Q 3.67 | P 4.3 | A 3.94 | F 2.69 | M 3.29 | K 3.07 | D 4.3 | Y 3.22 | I 3.12 | W 2.73 | L 3.41 | E 3.92 | S 3.73 | C 2.89 | H 3.11 | V 3.77 | T 3.3 | N 3.43
D4: R 2.04 | E 3.77 | M 2.77 | T 2.35 | N 3.22 | P 3.11 | F 2.75 | L 2.37 | W 1.7 | I 2.76 | S 2.51 | Y 2.75 | C 2.33 | G 2.49 | Q 3.03 | V 2.59 | K 1.87 | H 1.91 | A 2.26
L6: S 3.35 | R 2.98 | T 3.79 | D 4.09 | N 3.85 | M 3.71 | I 3.37 | W 1.75 | V 3.81 | C 3.42 | Y 2.78 | G 3.64 | Q 3.6 | E 3.96 | F 3.16 | A 3.69 | H 3.98 | P 3.57 | K 3.22
D8: M 2.96 | A 2.96 | K 2.42 | S 3.19 | C 2.88 | Q 3.07 | E 3.73 | R 2.15 | L 2.33 | F 2.52 | G 3.09 | P 3.31 | N 3.28 | H 2.73 | T 2.36 | W 1.98 | Y 2.14 | I 3.03 | V 3.1
F1: M 4.82 | N 4.91 | C 5.03 | P 5.13 | A 5.42 | T 4.74 | R 4.64 | E 4.96 | D 4.84 | Q 4.57 | Y 3.3 | W 4.36 | L 4.55 | G 5.12 | S 5.1 | V 4.88 | K 4.41 | H 4.7 | I 4.61
G10: E 3.67 | F 2.54 | A 3.41 | D 3.37 | C 2.93
P2: W 2.04 | S 3.96 | R 3.52 | A 2.62 | M 3.25 | D 3.95 | C 2.57 | G 3.62 | H 1.84 | Y 3 | V 1.5 | T 2.74 | N 4.24 | F 2.83 | K 3.97 | I 2.12 | L 3.37 | Q 2.63 | E 4.51
S3: I 3.02 | V 2.56 | A 2.85 | H 2.91 | F 2.29 | Q 3.57 | N 3.16 | T 2.9 | W 2.2 | D 4.07 | K 2.67 | E 3.97 | P 3.79 | M 2.59 | Y 2.45 | L 3.04 | C 2.46 | R 2.6 | G 2.97
L9: S 3.69 | E 4 | W 2.19 | G 3.54 | N 4.32 | D 4.5 | T 3.79 | Y 3.29 | Q 3.64 | R 3.66 | C 3.5 | A 3.63 | V 3.48 | I 3.54 | K 3.94 | H 3.66 | F 3.45 | M 3.74 | P 3.42

Variants of: B2
Test: as above
Settings: c terminus: a fixed tail appended

Protein stability index: each site, then its substitutions
K22: S 2.79 | H 3.37 | Q 2.76 | V 2.77 | W 2.17 | R 2.34 | D 3.72 | E 2.96 | P 3.79 | L 2.65 | T 2.99 | A 2.77 | F 2.46 | M 3.09 | I 2.37 | N 2.93 | C 4.4 | Y 2.73 | G 2.52
L17: W 2.31 | F 2.55 | C 4.42 | E 3.98 | D 4.68 | I 3.33 | S 4.24 | G 3.77 | T 3.91 | V 2.6 | A 3.66 | Y 3.1 | N 3.65 | Q 3.85 | K 3.44 | M 2.96 | P 3.88 | H 3.63 | R 3.44
M16: T 4.14 | S 3.8 | R 3.29 | W 2.62 | Y 2.98 | V 3.27
L23: F 3.64 | H 4.67 | I 2.86 | V 4.26 | R 3.4 | Y 3.89 | T 4.03 | N 3.83 | P 3.28 | M 3.42 | K 3.36 | S 4.18 | A 3.89 | Q 3.82 | D 4.67 | W 3.91 | C 4.27 | G 3.93 | E 4.2
C24: N 1.91 | E 2.11 | S 1.89 | G 1.63 | A 1.99 | I 2.07 | P 1.81 | L 1.92 | H 1.9 | Q 2.22 | V 2.35 | K 2.15 | R 1.38 | D 2.25 | Y 1.7 | W 2.21 | M 2.81 | F 2.24 | T 1.57
H21: F 2.35 | A 2.7 | I 2.88 | G 3.17 | M 2.89 | Y 3.32 | P 3.17 | T 3.17 | R 3 | N 3.25 | E 3.21 | D 3.75 | S 2.9 | L 2.77 | W 2.45 | V 3.29 | K 3.02 | C 3.17 | Q 2.51
T19: G 4.05 | Q 3.03 | K 3.44 | D 4.48 | S 3.1 | V 2.49 | A 3.29 | L 2.29 | P 2.81 | N 3.81 | R 2.79 | I 2.68 | M 3.03 | W 1.87 | H 3.43 | E 3.62 | Y 2.71 | F 2.17 | C 3.45
H20: G 2.56 | M 1.23 | E 3.24 | A 2.24 | T 1.98 | S 3.17 | P 2.47 | K 2.61 | W 2.48 | N 2.92 | L 2.24 | R 2.28 | V 2.15 | Q 2.5 | F 2.07 | Y 2.09 | D 3.64 | I 2.12 | C 2.75
D18: S 3.22 | K 2.46 | H 3.07 | F 2.08 | R 2.65 | C 3.19 | E 3.35 | V 2.39 | W 1.99 | Y 2.09 | P 2.71 | T 2.96 | I 2.24 | A 2.85 | G 2.81 | N 2.88 | L 2.38 | Q 2.29 | M 2.56
